{
  "source": "paper PMC3071548",
  "about": "(Molecular microbiology, 2010)",
  "molecular_target": "the molecule itself",
  "test": "SEC",
  "data": [
    {"protein": "YgbT, purified full-length protein (natural protein, E. coli, UniProt Q46896 1-305, looked up) MTWLPLNPIPLKDRVSMIFLQYGQIDVIDGAFVLIDKTGIRTHIPVGSVACIMLEPGTRVSHAAVRLAAQVGTLLVWVGEAGVRVYASGQPGGARSDKLLYQAKLALDEDLRLKVVRKMFELRFGEPAPARRSVEQLRGIEGSRVRATYALLAKQYGVTWNGRRYDPKDWEKGDTINQCISAATSCLYGVTEAAILAAGYAPAIGFVHTGKPLSFVYDIADIIKFDTVVPKAFEIARRNPGEPDREVRLACRDIFRSSKTLAKLIPLIEDVLAAGEIQPPAPPEDAQPVAIPLPVSLGDAGHRSS", "values": [
      {"measurement": "stoichiometry N", "value": 2}
    ]}
  ]
}
